Results published in patent publication US20260226184A1.
One block for each molecule: values may come before it.

Legend:
[1] = target: IL-2R (IL-2 receptor on the BCMA CAR T cells) (human) (UniProt P01589); assay: cell-based or functional assay
[2] = target: CAR that binds human CD19 (scFv derived from anti-human CD19 antibody clone FMC69, human CD28 and CD3zeta intracellular signaling domains), on human T cells; assay: flow cytometry, dose-dependent staining of CD19 CAR T cells, y-axis %Binding; the value stands above the plot, in which only this curve rises
[3] = target: CAR that binds human BCMA (scFv derived from anti-human BCMA antibody clone MSK54, human 41BB and CD3zeta intracellular signaling domains), on human T cells; assay: flow cytometry, staining of BCMA CAR T cells with varying concentrations, Alexa647-labeled anti-FLAG secondary
[4] = target: CAR that binds human BCMA (scFv derived from anti-human BCMA antibody clone MSK54, human 41BB and CD3zeta intracellular signaling domains), on human T cells; assay: cell-based or functional assay
[5] = target: CAR that binds human BCMA (scFv derived from anti-human BCMA antibody clone MSK54, human 41BB and CD3zeta intracellular signaling domains), on human T cells; assay: cell-based or functional assay; remark: listed apart in the source
[6] = target: CAR that binds human BCMA (scFv derived from anti-human BCMA antibody clone MSK54, human 41BB and CD3zeta intracellular signaling domains), on human T cells; assay: flow cytometry, anti-CD45 (y) against AF647-tagged BCMA-CH3 (x); CAR + Treatment mouse (BCMA CAR T cells and BCMA-muIL2); Liver
[7] = target: CAR that binds human BCMA (scFv derived from anti-human BCMA antibody clone MSK54, human 41BB and CD3zeta intracellular signaling domains), on human T cells; assay: flow cytometry, anti-CD45 (y) against AF647-tagged BCMA-CH3 (x); CAR only mouse, upper row (CAR T cells without CAR-engager; the text says little to no CD45+ cells persisted); Lung
[8] = target: CAR that binds human BCMA (scFv derived from anti-human BCMA antibody clone MSK54, human 41BB and CD3zeta intracellular signaling domains), on human T cells; assay: flow cytometry, anti-CD45 (y) against AF647-tagged BCMA-CH3 (x); CAR only mouse, upper row (CAR T cells without CAR-engager; the text says little to no CD45+ cells persisted); Lymph node
[9] = target: CAR that binds human BCMA (scFv derived from anti-human BCMA antibody clone MSK54, human 41BB and CD3zeta intracellular signaling domains), on human T cells; assay: flow cytometry, anti-CD45 (y) against AF647-tagged BCMA-CH3 (x); CAR only mouse, upper row (CAR T cells without CAR-engager; the text says little to no CD45+ cells persisted); Kidney
[10] = target: CAR that binds human BCMA (scFv derived from anti-human BCMA antibody clone MSK54, human 41BB and CD3zeta intracellular signaling domains), on human T cells; assay: flow cytometry, anti-CD45 (y) against AF647-tagged BCMA-CH3 (x); CAR only mouse, lower row (CAR T cells without CAR-engager; the text says little to no CD45+ cells persisted); Bone Marrow Right
[11] = target: CAR that binds human BCMA (scFv derived from anti-human BCMA antibody clone MSK54, human 41BB and CD3zeta intracellular signaling domains), on human T cells; assay: flow cytometry, anti-CD45 (y) against AF647-tagged BCMA-CH3 (x); CAR + Treatment mouse (BCMA CAR T cells and BCMA-muIL2); Tumor Eye
[12] = target: CAR that binds human BCMA (scFv derived from anti-human BCMA antibody clone MSK54, human 41BB and CD3zeta intracellular signaling domains), on human T cells; assay: flow cytometry, anti-CD45 (y) against AF647-tagged BCMA-CH3 (x); CAR + Treatment mouse (BCMA CAR T cells and BCMA-muIL2); Blood
[13] = target: CAR that binds human BCMA (scFv derived from anti-human BCMA antibody clone MSK54, human 41BB and CD3zeta intracellular signaling domains), on human T cells; assay: flow cytometry, anti-CD45 (y) against AF647-tagged BCMA-CH3 (x); CAR + Treatment mouse (BCMA CAR T cells and BCMA-muIL2); Spleen
[14] = target: CAR that binds human BCMA (scFv derived from anti-human BCMA antibody clone MSK54, human 41BB and CD3zeta intracellular signaling domains), on human T cells; assay: flow cytometry, anti-CD45 (y) against AF647-tagged BCMA-CH3 (x); CAR only mouse, upper row (CAR T cells without CAR-engager; the text says little to no CD45+ cells persisted); Bone Marrow Left
[15] = target: CAR that binds human BCMA (scFv derived from anti-human BCMA antibody clone MSK54, human 41BB and CD3zeta intracellular signaling domains), on human T cells; assay: flow cytometry, anti-CD45 (y) against AF647-tagged BCMA-CH3 (x); CAR only mouse, lower row (CAR T cells without CAR-engager; the text says little to no CD45+ cells persisted); Bone Marrow Left
[16] = target: CAR that binds human BCMA (scFv derived from anti-human BCMA antibody clone MSK54, human 41BB and CD3zeta intracellular signaling domains), on human T cells; assay: flow cytometry, anti-CD45 (y) against AF647-tagged BCMA-CH3 (x); CAR only mouse, lower row (CAR T cells without CAR-engager; the text says little to no CD45+ cells persisted); Kidney
[17] = target: CAR that binds human BCMA (scFv derived from anti-human BCMA antibody clone MSK54, human 41BB and CD3zeta intracellular signaling domains), on human T cells; assay: flow cytometry, dose-dependent staining of BCMA CAR T cells, secondary Alexa647-labeled anti-FLAG antibody, y-axis %Binding
[18] = target: CAR that binds human BCMA (scFv derived from anti-human BCMA antibody clone MSK54, human 41BB and CD3zeta intracellular signaling domains), on human T cells; assay: flow cytometry, anti-CD45 (y) against AF647-tagged BCMA-CH3 (x); CAR only mouse, lower row (CAR T cells without CAR-engager; the text says little to no CD45+ cells persisted); Lung
[19] = target: CAR that binds human BCMA (scFv derived from anti-human BCMA antibody clone MSK54, human 41BB and CD3zeta intracellular signaling domains), on human T cells; assay: flow cytometry, anti-CD45 (y) against AF647-tagged BCMA-CH3 (x); CAR + Treatment mouse (BCMA CAR T cells and BCMA-muIL2); Bone Marrow Left
[20] = target: CAR that binds human BCMA (scFv derived from anti-human BCMA antibody clone MSK54, human 41BB and CD3zeta intracellular signaling domains), on human T cells; assay: flow cytometry, anti-CD45 (y) against AF647-tagged BCMA-CH3 (x); CAR + Treatment mouse (BCMA CAR T cells and BCMA-muIL2); Lung
[21] = target: CAR that binds human BCMA (scFv derived from anti-human BCMA antibody clone MSK54, human 41BB and CD3zeta intracellular signaling domains), on human T cells; assay: flow cytometry, anti-CD45 (y) against AF647-tagged BCMA-CH3 (x); CAR only mouse, lower row (CAR T cells without CAR-engager; the text says little to no CD45+ cells persisted); Blood
[22] = target: CAR that binds human BCMA (scFv derived from anti-human BCMA antibody clone MSK54, human 41BB and CD3zeta intracellular signaling domains), on human T cells; assay: flow cytometry, anti-CD45 (y) against AF647-tagged BCMA-CH3 (x); CAR + Treatment mouse (BCMA CAR T cells and BCMA-muIL2); Kidney
[23] = target: CAR that binds human BCMA (scFv derived from anti-human BCMA antibody clone MSK54, human 41BB and CD3zeta intracellular signaling domains), on human T cells; assay: flow cytometry, anti-CD45 (y) against AF647-tagged BCMA-CH3 (x); CAR only mouse, upper row (CAR T cells without CAR-engager; the text says little to no CD45+ cells persisted); Bone Marrow Right
[24] = target: CAR that binds human BCMA (scFv derived from anti-human BCMA antibody clone MSK54, human 41BB and CD3zeta intracellular signaling domains), on human T cells; assay: flow cytometry, anti-CD45 (y) against AF647-tagged BCMA-CH3 (x); CAR only mouse, upper row (CAR T cells without CAR-engager; the text says little to no CD45+ cells persisted); Blood
[25] = target: CAR that binds human BCMA (scFv derived from anti-human BCMA antibody clone MSK54, human 41BB and CD3zeta intracellular signaling domains), on human T cells; assay: flow cytometry, anti-CD45 (y) against AF647-tagged BCMA-CH3 (x); CAR + Treatment mouse (BCMA CAR T cells and BCMA-muIL2); Lymph node
[26] = target: CAR that binds human BCMA (scFv derived from anti-human BCMA antibody clone MSK54, human 41BB and CD3zeta intracellular signaling domains), on human T cells; assay: flow cytometry, anti-CD45 (y) against AF647-tagged BCMA-CH3 (x); CAR only mouse, lower row (CAR T cells without CAR-engager; the text says little to no CD45+ cells persisted); Liver
[27] = target: CAR that binds human BCMA (scFv derived from anti-human BCMA antibody clone MSK54, human 41BB and CD3zeta intracellular signaling domains), on human T cells; assay: flow cytometry, anti-CD45 (y) against AF647-tagged BCMA-CH3 (x); CAR only mouse, upper row (CAR T cells without CAR-engager; the text says little to no CD45+ cells persisted); Liver
[28] = target: CAR that binds human BCMA (scFv derived from anti-human BCMA antibody clone MSK54, human 41BB and CD3zeta intracellular signaling domains), on human T cells; assay: flow cytometry, anti-CD45 (y) against AF647-tagged BCMA-CH3 (x); CAR only mouse, lower row (CAR T cells without CAR-engager; the text says little to no CD45+ cells persisted); Lymph node
[29] = target: CAR that binds human BCMA (scFv derived from anti-human BCMA antibody clone MSK54, human 41BB and CD3zeta intracellular signaling domains), on human T cells; assay: flow cytometry, anti-CD45 (y) against AF647-tagged BCMA-CH3 (x); CAR only mouse, upper row (CAR T cells without CAR-engager; the text says little to no CD45+ cells persisted); Spleen
[30] = target: CAR that binds human BCMA (scFv derived from anti-human BCMA antibody clone MSK54, human 41BB and CD3zeta intracellular signaling domains), on human T cells; assay: flow cytometry, anti-CD45 (y) against AF647-tagged BCMA-CH3 (x); CAR + Treatment mouse (BCMA CAR T cells and BCMA-muIL2); Bone Marrow Right

Sequence of UniProt P01589 (P01589 22-272, chain 1 of 3): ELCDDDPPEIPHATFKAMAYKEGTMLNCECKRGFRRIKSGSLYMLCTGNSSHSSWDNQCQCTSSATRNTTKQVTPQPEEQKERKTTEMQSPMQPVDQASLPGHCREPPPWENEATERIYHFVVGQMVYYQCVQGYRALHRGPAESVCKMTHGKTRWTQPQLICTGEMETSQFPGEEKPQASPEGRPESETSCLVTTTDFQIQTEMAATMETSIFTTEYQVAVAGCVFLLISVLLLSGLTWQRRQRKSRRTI
Sequence of UniProt P01589 (P14784 27-551, chain 2 of 3, further chain): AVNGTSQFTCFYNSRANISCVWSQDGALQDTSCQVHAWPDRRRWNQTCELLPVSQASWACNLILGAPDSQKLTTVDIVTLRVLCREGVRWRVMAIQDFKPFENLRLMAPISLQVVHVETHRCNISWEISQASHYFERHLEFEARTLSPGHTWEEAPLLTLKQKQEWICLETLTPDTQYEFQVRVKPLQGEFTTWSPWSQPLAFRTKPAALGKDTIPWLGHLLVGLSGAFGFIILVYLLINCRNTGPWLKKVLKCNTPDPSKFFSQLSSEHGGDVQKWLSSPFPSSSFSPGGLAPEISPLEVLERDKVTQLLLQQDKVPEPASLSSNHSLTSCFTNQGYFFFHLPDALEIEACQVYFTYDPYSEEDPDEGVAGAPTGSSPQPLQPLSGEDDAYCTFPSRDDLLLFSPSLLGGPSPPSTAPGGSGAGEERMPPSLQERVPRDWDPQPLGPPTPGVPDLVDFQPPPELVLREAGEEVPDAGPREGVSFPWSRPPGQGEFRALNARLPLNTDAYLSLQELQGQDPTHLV
Sequence of UniProt P01589 (P31785 23-369, chain 3 of 3, further chain): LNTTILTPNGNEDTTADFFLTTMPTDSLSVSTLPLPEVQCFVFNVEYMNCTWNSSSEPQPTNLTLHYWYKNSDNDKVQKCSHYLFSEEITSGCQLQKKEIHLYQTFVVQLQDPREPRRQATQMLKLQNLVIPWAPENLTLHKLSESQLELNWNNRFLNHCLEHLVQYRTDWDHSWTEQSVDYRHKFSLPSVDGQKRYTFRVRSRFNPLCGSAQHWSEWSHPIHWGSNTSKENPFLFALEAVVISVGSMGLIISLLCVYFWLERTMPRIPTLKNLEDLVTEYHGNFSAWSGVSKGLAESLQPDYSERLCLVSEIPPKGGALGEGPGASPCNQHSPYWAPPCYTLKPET

Molecule: VHH-muIL2 (control construct with an irrelevant nanobody in place of the BCMA ectodomain in the CH3-muIL2 construct)
phosphorylation of STAT5 (pY694) in BCMA CAR T cells, EC50 [1]: 3.9 nM

B1: BCMA-CH3-Neo-2/15 CAR-engager (protein)
chain: MLQMAGQCSQNEYFDSLLHACIPCQLRCSSNTPPLTCQRYCNASVTNSVKGTNAEPKSPKSADKTHTAPQPREPQVYTLPPSRDELTKNQVSLTCLVKGFYPSDIAVEWESNGQPENNYKTTPPVLDSDGSFFLYSKLTVDKSRWQQGNVFSCSVMHEALHNHYTQKSLSLSPGKGSHMPKKKIQLHAEHALYDALMILNIVKTNSPPAEEKLEDYAFNFELILEEIARLFESGDQKDEAEKAKRMKEWMKRIKTTASEDEQEEMANAIITILQSWIFS
lowest threshold of induced expression of CD69 in CAR T cells [5]: 0.01 nM

More lines, now with the values ahead:

EC50 [2]: 0.59 nM
Molecule: CD19-muIL2 CAR-engager (from UniProt P15391 20-291)

EC50 [3]: 0.21 nM
phosphorylation of STAT5 (pY694) in BCMA CAR T cells, EC50 [1]: 14 pM
sensitivity of STAT5 phosphorylation against VHH-muIL2 [4]: > 200 fold
Molecule: BCMA-muIL2 CAR-engager (BCMA-CH3-muIL2-muIL2)

percent of cells in the upper right quadrant (CD45+ AF647+) [6]: 3.97%
percent of cells in the upper right quadrant (CD45+ AF647+) [7]: 0.18%
percent of cells in the upper right quadrant (CD45+ AF647+) [8]: 1.08%
percent of cells in the upper right quadrant (CD45+ AF647+) [9]: 0.21%
percent of cells in the upper right quadrant (CD45+ AF647+) [10]: 0.032%
percent of cells in the upper right quadrant (CD45+ AF647+) [11]: 1.38%
percent of cells in the upper right quadrant (CD45+ AF647+) [12]: 0.69%
percent of cells in the upper right quadrant (CD45+ AF647+) [13]: 47.4%
percent of cells in the upper right quadrant (CD45+ AF647+) [14]: 0.054%
percent of cells in the upper right quadrant (CD45+ AF647+) [15]: 0.013%
percent of cells in the upper right quadrant (CD45+ AF647+) [16]: 0.044%
EC50 (read off the curve) [17]: 0.2 nM
percent of cells in the upper right quadrant (CD45+ AF647+) [18]: 0.096%
percent of cells in the upper right quadrant (CD45+ AF647+) [19]: 0.75%
percent of cells in the upper right quadrant (CD45+ AF647+) [20]: 2.69%
percent of cells in the upper right quadrant (CD45+ AF647+) [21]: 0.13%
percent of cells in the upper right quadrant (CD45+ AF647+) [22]: 1.69%
percent of cells in the upper right quadrant (CD45+ AF647+) [23]: 0.02%
percent of cells in the upper right quadrant (CD45+ AF647+) [24]: 0.2%
percent of cells in the upper right quadrant (CD45+ AF647+) [25]: 12.2%
percent of cells in the upper right quadrant (CD45+ AF647+) [26]: 0.058%
percent of cells in the upper right quadrant (CD45+ AF647+) [27]: 0.13%
percent of cells in the upper right quadrant (CD45+ AF647+) [28]: 5.26%
percent of cells in the upper right quadrant (CD45+ AF647+) [29]: 0.00572%
percent of cells in the upper right quadrant (CD45+ AF647+) [30]: 1.01%
B2: BCMA-CH3 (dimeric BCMA lacking the muIL2) (protein)
chain: MLQMAGQCSQNEYFDSLLHACIPCQLRCSSNTPPLTCQRYCNASVTNSVKGTNAEPKSPKSADKTHTAPQPREPQVYTLPPSRDELTKNQVSLTCLVKGFYPSDIAVEWESNGQPENNYKTTPPVLDSDGSFFLYSKLTVDKSRWQQGNVFSCSVMHEALHNHYTQKSLSLSPGK
